Source: the supplement of paper PMC10724198
± gives the standard deviation of the averaged measurements.

Test system: Saccharomyces cerevisiae
Experiment: protein stability index of tFT-peptide fusion (C-terminal peptide) (PSI (0-1 scale)); higher = more stable (slower turnover)
Settings: genetic background: wild type; temperature: 30 C
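Note: PSI is a weighted mean of sequencing reads over stability bins, variants kept only with over 10 reads, mCherry proximal and sfGFP distal, peptide attached via GGGS linker.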

Sequence | protein stability index
KHRKSKEIRTAR | 0.6844 ± 0.0065
KIGEVNKKQSII | 0.743 ± 0.064
KIIKKKKKNKEH | 0.596 ± 0.055
KIIRKNILRNEY | 0.658 ± 0.018
KIKNHQRQIMNT | 0.494 ± 0.092
KIKTTKKIKKKK | 0.681 ± 0.032
KINKNMDYKYQK | 0.673 ± 0.095
KINPQKTEWARR | 0.689 ± 0.024
KKDIYRVGLKVR | 0.618 ± 0.011
KKDMCRSSFPDC | 0.686 ± 0.007
KKEIGGSNWNKK | 0.632 ± 0.09
KKEKKKTKANKT | 0.679 ± 0.031
KKEQPKEKQGNK | 0.732 ± 0.053
KKETKSNCRIKN | 0.708 ± 0.017
KKETRKKETKKE | 0.685 ± 0.041
KKETRRTNPEHK | 0.765 ± 0.11
KKGGKEEPSRRK | 0.741 ± 0.084
KKIKKKQKKKIQ | 0.664 ± 0.071
KKKELLTKKQKD | 0.637 ± 0.021
KKKENKNEKKKE | 0.692 ± 0.06
KKKGWAKEKLKR | 0.75 ± 0.051
KKKKIKKNKKQL | 0.684 ± 0.01
KKKKKIKNKKKK | 0.741 ± 0.032
KKKKKKEKGDST | 0.716 ± 0.076
KKKKKKKKKKQN | 0.62 ± 0.039
KKKKKKKKKNEK | 0.755 ± 0.024

Sequence | protein stability index
KKKKKKKNKKKT | 0.7142 ± 0.00095
KKKKKKNSEKMK | 0.704 ± 0.062
KKKKKKQKHKKI | 0.718 ± 0.033
KKKKKRKKEEKH | 0.721 ± 0.032
KKKKKTQKKTKQ | 0.6818 ± 0.0029
KKKKNKNEKPKK | 0.746 ± 0.074
KKKKNNKKKKIE | 0.702 ± 0.015
KKKKQKKKYKKT | 0.695 ± 0.095
KKKNEAKKKKTK | 0.744 ± 0.058
KKKQTKGNQKPK | 0.7623 ± 0.0011
KKKRKRREKKQN | 0.681 ± 0.016
KKKTKQTKVNKK | 0.64 ± 0.072
KKNCRKNQKEET | 0.663 ± 0.067
KKNKKQDDKKRQ | 0.645 ± 0.039
KKNNTKKNRKRK | 0.7 ± 0.051
KKQAVRVEIIGR | 0.655 ± 0.018
KKQKKKKTQTNK | 0.68224 ± 0.00034
KKQKSKSAREAS | 0.658 ± 0.024
KKQQKTKEKTES | 0.76 ± 0.031
KKRKEIKNREEK | 0.739 ± 0.035
KKRKEKRKKNSI | 0.647 ± 0.016
KKRKGKGRDIRG | 0.7025 ± 0.0016
KKRREKKYQHKI | 0.713 ± 0.039
KKRRTIKSQSKV | 0.6825 ± 0.0049
KKSKEKGTRRQR | 0.651 ± 0.073
KKSKKKSKNIRK | 0.694 ± 0.028

Sequence | protein stability index
KKSNEKERATQQ | 0.708 ± 0.046
KKSVDKNKEIKL | 0.681 ± 0.12
KKTRGNNGKTQR | 0.631 ± 0.0076
KKTSKTERDQKE | 0.639 ± 0.015
KKTTKKKRKKNK | 0.657 ± 0.018
KKTVKNNQNNTD | 0.654 ± 0.041
KKVKNQGLILRW | 0.673 ± 0.035
KKVTEKSKNEKR | 0.692 ± 0.053
KLEEKRKEMERK | 0.7093 ± 0.007
KLEERIKRTEDK | 0.7219 ± 0.0018
KLKIKREKKKRK | 0.668 ± 0.019
KLKIMEDQGKKK | 0.706 ± 0.12
KLPILDKKAVAQ | 0.696 ± 0.03
KLPPATPNSRPP | 0.714 ± 0.2
KLPRPRHSDCPS | 0.6505 ± 0.00069
KLQPVTTTQTIG | 0.6713 ± 0.004
KNANLRLPWKAH | 0.667 ± 0.029
KNAQQYQKKQKQ | 0.797 ± 0.056
KNEIRLKEDIRC | 0.718 ± 0.017
KNIKKKNKNDKK | 0.6936 ± 0.0063
KNKKKNSRKKQQ | 0.702 ± 0.0083
KNMKTEDLLIVN | 0.727 ± 0.022
KNSWVLPPSPRS | 0.68 ± 0.04
KNVHKDNRSVKK | 0.677 ± 0.14
KPGGQRTRTRRR | 0.622 ± 0.025
KPSAKRRNLFKL | 0.699 ± 0.15

Sequence | protein stability index
KQAPTLFLSFIL | 0.5885 ± 0.0028
KQDTRRHIHTTK | 0.735 ± 0.092
KQEDIKNKKKKE | 0.679 ± 0.032
KQKKIGNKITNK | 0.667 ± 0.008
KQKKKKKEYKKK | 0.676 ± 0.027
KQKKNKNNHRKK | 0.761 ± 0.024
KQKQNKIKITTQ | 0.656 ± 0.0077
KQKRKENIHIIK | 0.776 ± 0.033
KQQRKNEKTNTL | 0.658 ± 0.16
KQSIKKKKIKKT | 0.634 ± 0.017
KRAREKDGKSAD | 0.676 ± 0.032
KRARLWQKRVEK | 0.754 ± 0.14
KREMESTTHSKT | 0.5985 ± 0.0011
KRFDKEWEIWRS | 0.733 ± 0.023
KRGFSLKEARGF | 0.642 ± 0.008
KRGKNKKYKNRF | 0.638 ± 0.074
KRGRAIVVQLWV | 0.578 ± 0.021
KRKDGVTAGVEG | 0.712 ± 0.017
KRKETIRKKNQT | 0.734 ± 0.05
KRKHHKREKKKK | 0.677 ± 0.042
KRKKEKRKEERK | 0.779 ± 0.011
KRKKIQNRGKKK | 0.718 ± 0.0086
KRRAERKKRSKG | 0.6731 ± 0.006
KRRRYKEKPRKR | 0.665 ± 0.12
KRWKSKYELGST | 0.68 ± 0.063
KRYRKGGRPMRA | 0.66 ± 0.06

Sequence | protein stability index
KSARSYSMEGEI | 0.673 ± 0.016
KSFQLEHKYTRN | 0.737 ± 0.029
KSGGWLWGGGGG | 0.663 ± 0.054
KSGHYVVSYSGV | 0.678 ± 0.0045
KSPDSLDIRFHT | 0.714 ± 0.13
KSQATELKKVNG | 0.65 ± 0.037
KSRGYSKQQIRG | 0.72 ± 0.015
KSSNYSTEDVKI | 0.697 ± 0.014
KSSSVRQGWEGC | 0.728 ± 0.081
KTGATAIKKINK | 0.695 ± 0.039
KTKEYKYEKRKT | 0.596 ± 0.027
KTKKIMPEQIKK | 0.616 ± 0.017
KTKKKKEQTKKK | 0.808 ± 0.15
KTKKKYENRKKK | 0.684 ± 0.0094
KTKKNKQKSKKK | 0.705 ± 0.034
KTKKQEKNNKSK | 0.685 ± 0.029
KTLRRGYDWLQG | 0.681 ± 0.038
KTLVRSFSIIEG | 0.657 ± 0.026
KTRHRQKDVTTH | 0.713 ± 0.055
KTRKNNSKKNTK | 0.688 ± 0.019
KTSYDQTLEMGL | 0.62 ± 0.04
KTTRTGRHTAPN | 0.676 ± 0.028
KTTVENEQRKEK | 0.698 ± 0.079
KVDRDRTGIHWS | 0.671 ± 0.061
KVHQHPFLHALS | 0.695 ± 0.012
KVIKEQNKKIDR | 0.641 ± 0.026

Sequence | protein stability index
KVNWVKAAKKNA | 0.626 ± 0.019
KVSTWKISRISG | 0.55 ± 0.026
KWEGKKINKKRE | 0.699 ± 0.077
KWGVWLWVGGGG | 0.763 ± 0.056
KYEKILLTVAPE | 0.672 ± 0.019
KYLPSVVYIYRL | 0.531 ± 0.023
KYMENQLSYDAD | 0.646 ± 0.051
LACGWCVAVYRG | 0.644 ± 0.049
LAFFAPCLLPPL | 0.557 ± 0.048
LAFFPPPLPPSS | 0.698 ± 0.064
LAGGGARWGVVR | 0.659 ± 0.033
LAGISSNRHLRR | 0.753 ± 0.067
LAGRSVVLLWMG | 0.602 ± 0.021
LALLGPCPPPIH | 0.741 ± 0.083
LAPLTLLSPLPR | 0.677 ± 0.034
LAPNPGVLFCGI | 0.656 ± 0.044
LAPPPRPPLAPP | 0.637 ± 0.03
LAPRPPAPTPTL | 0.603 ± 0.053
LAPSWVGYVSGH | 0.7 ± 0.069
LARLTRHSKLGL | 0.712 ± 0.066
LASVYLLLRFSE | 0.5266 ± 0.0012
LAVVGGVEKKYH | 0.676 ± 0.055
LAVVSTRCRLEL | 0.694 ± 0.062
LCDACLSLVFLW | 0.629 ± 0.031
LCGSSVSHLVLP | 0.7125 ± 0.0054
LCPSFAIALSSD | 0.692 ± 0.013

Sequence | protein stability index
LCRCVFFGLWGV | 0.621 ± 0.031
LCSLSLCSYSIF | 0.6 ± 0.0053
LCTYVMFACFFF | 0.641 ± 0.1
LCYTDMIRGCVF | 0.65 ± 0.021
LDELTRRAEGCG | 0.596 ± 0.008
LDGGYGRHGVGD | 0.6765 ± 0.00099
LDIGVADAQRML | 0.701 ± 0.14
LEGTGDRFALCG | 0.659 ± 0.023
LEIRKKGNKIRE | 0.6 ± 0.041
LEKYIKNYINKR | 0.615 ± 0.016
LERTTSNKYEER | 0.7234 ± 0.0061
LESARDICAFAD | 0.6754 ± 0.005
LESSAKSRTMVL | 0.721 ± 0.014
LEVFSGNQSVLH | 0.645 ± 0.094
LFAHSLRLSFAC | 0.7054 ± 0.0031
LFALLSGIDRCL | 0.634 ± 0.012
LFAPPACLPSPA | 0.64 ± 0.014
LFFGSNLFLLAL | 0.595 ± 0.043
LFFNLLLFFSFI | 0.488 ± 0.018
LFFSLSLVVPTG | 0.633 ± 0.095
LFGAVGGGVEVG | 0.668 ± 0.12
LFGVRFTLGYLF | 0.554 ± 0.016
LFLGSFSRSLWP | 0.755 ± 0.015
LFLLYPRLTLPL | 0.621 ± 0.023
LFLPLPGPLRSS | 0.79 ± 0.13
LFPAAPAPPPPP | 0.658 ± 0.028

Sequence | protein stability index
LFPAIWPRVLSW | 0.566 ± 0.02
LFPRCYFARIVV | 0.484 ± 0.033
LFSSQAGGRLES | 0.67 ± 0.019
LFTFEADKCDLT | 0.774 ± 0.092
LFTSCPPDVRSL | 0.667 ± 0.012
LFVAFGAAESFE | 0.67 ± 0.098
LGAPPPLGLSPS | 0.733 ± 0.019
LGASPTWGPARS | 0.656 ± 0.016
LGCVDRMGRVFG | 0.704 ± 0.079
LGEHHKEQEKNV | 0.654 ± 0.023
LGEYNRKKKPRI | 0.6446 ± 0.0034
LGFDRGGGVAGM | 0.674 ± 0.034
LGGERERGRKRG | 0.672 ± 0.048
LGGGEGKRVCEG | 0.668 ± 0.017
LGGGGVGVGSLV | 0.679 ± 0.014
LGGGGWGGACGE | 0.66 ± 0.02
LGGGNVGHSRIW | 0.623 ± 0.073
LGGICPLYDLVF | 0.667 ± 0.076
LGGLKCGRLADS | 0.656 ± 0.041
LGGLRRGSGREG | 0.678 ± 0.015
